Measured values published in patent US20220389085A1 (BIONOXX, published 2022).

T1: protein A56 of the oncolytic virus OTS-412 (vaccinia virus (OTS-412), UniProt P08714 17-315)
T1 construct: also called OTS-412-A56; protein A56 variant
T1 chain: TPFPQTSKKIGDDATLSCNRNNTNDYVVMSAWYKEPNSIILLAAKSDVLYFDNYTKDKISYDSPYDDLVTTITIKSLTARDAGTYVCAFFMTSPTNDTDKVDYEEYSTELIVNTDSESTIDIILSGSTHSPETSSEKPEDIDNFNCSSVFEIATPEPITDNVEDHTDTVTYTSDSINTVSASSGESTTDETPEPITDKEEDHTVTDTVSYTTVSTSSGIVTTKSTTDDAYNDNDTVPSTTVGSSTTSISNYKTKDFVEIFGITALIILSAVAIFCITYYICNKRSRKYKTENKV


Key:
[1] = biological target: T2, protein A56 of the oncolytic virus WOTS-418 (vaccinia virus (WOTS-418, Western …, UniProt Q01218 17-314)); assay: flow cytometry, MCF7 cells treated with WOTS-418
T2 construct: also called WOTS-418-A56; protein A56 variant

[2] = biological target: T1, protein A56 of the oncolytic virus …; assay: flow cytometry, A549 cells treated with OTS-412
[3] = biological target: T1, protein A56 of the oncolytic virus …; assay: flow cytometry, PC3 cells treated with OTS-412 (overlay, FIG. 74)
[4] = biological target: T1, protein A56 of the oncolytic virus …; assay: flow cytometry, MCF7 cells treated with OTS-412
[5] = biological target: T2, protein A56 of the oncolytic virus …; assay: flow cytometry, PC3 cells treated with WOTS-418 (overlay, FIG. 75)
[6] = biological target: T2, protein A56 of the oncolytic virus …; assay: flow cytometry, A549 cells treated with WOTS-418
[7] = biological target: T1, protein A56 of the oncolytic virus …; assay: flow cytometry, PC3 cells treated with OTS-412
[8] = biological target: T2, protein A56 of the oncolytic virus …; assay: flow cytometry, PC3 cells treated with WOTS-418

Binder | binding signal (flow cytometry, %) [1] | binding signal (flow cytometry, %) [2] | binding signal (flow cytometry, %) [3] | binding signal (flow cytometry, %) [4] | binding signal (flow cytometry, %) [5] | binding signal (flow cytometry, %) [6] | binding signal (flow cytometry, %) [7] | binding signal (flow cytometry, %) [8]
A56-44G01 (Ab55) (antibody, V domains shown) VH: QVQLVESGGGVVQPGRSLRLSCAASGFTFSSYAMHWVRQAPGKGLEWVAVISYDGSNKYYADSVKGRFTISRDNSKNTLYLQMNSLRAEDTAVYYCAKDLWGRVGALVGALDLWGQGTMITVSS VL: SYELTQGPSLSVSPGQTANIICSGDNLRTKYVSWYQQKPGQSPILVIYQDTRRPSGIPARFSGSNSGNTATLTISGTQAMDEADYYCQAWDSGNYVFGTGTKVTVL | ≥ 80% | ≥ 90% | ≥ 60% | ≥ 80% | ≥ 60% | ≥ 90% |  | 
A56-35G07 (Ab51) (antibody, V domains shown) VH: QMQLVQSGAEVRKPGSSVKVSCKASGDTFSSYAVSWVRQAPGLGLEWMGRTIPRLGATSYAQNFQGRVSITADKSTNTVYMELSGLRSEDTAVYYCARYIPLVRGVRQPRDDFEIWGPGTMITVSS VL: DIQMTQSPGTLSLSPGERATLSCRASQSVSSSYLAWYQQKPGQAPRLLIYGASSRATGIPDRFSGSGSGTDFTLTISSLEPEDFAVYYCQHRKSWPPGATFGQGTRLEIK | ≥ 80% | ≥ 90% | ≥ 60% | ≥ 80% | ≥ 60% | ≥ 90% |  | 
A56-01A04 (Ab03) (antibody, V domains shown) VH: QVQLVESGAEVKKPGSSVKVSCKASGGTFSYRYLHWVRQASGQALEWMGWITPFNGYTNYAQKFQDRVTITRDRSMSTAYMELSSLRSEDTAVYYCVTGLGKTNLDSWGQGTLVTVSS VL: DIVMTQTPLSSPVTLGQPASISCRSSQSLVHSNGNTYLSWLQQRPGQPPRLLIYQISKRFSGVPDRFSGSGAGTDFTLKISRVEAEDVGVYYCMQLTQFPLTFGGGTKVEIK | ≥ 80% | ≥ 90% | ≥ 60% | ≥ 80% | ≥ 60% | ≥ 90% |  | 
LakePharma variant3 (antibody, also called LP variant3; LPvariant03) VH: QVQLQQSGPELVKPGASMKLSCKASGYSFTGYTMNWVKQSHGKNLEWIGLINPYNGGTSYNQKFKGKATLTVDKSSSTAYMELLSLTSEDSAVYYCARSHYRYDYWYFDVWGAGTTVTVSSAKTTPPSVYPLAPGSAAQTNSMVTLGCLVKGYFPEPVTVTWNSGSLSSGVHTFPAVLQSDLYTLSSSVTVPSSTWPSETVTCNVAHPASSTKVDKKIVPRDCGCKPCICTVPEVSSVFIFPPKPKDVLTITLTPKVTCVVVDISKDDPEVQFSWFVDDVEVHTAQTQPREEQFNSTFRSVSELPIMHQDWLNGKEFKCRVNSAAFPAPIEKTISKTKGRPKAPQVYTIPPPKEQMAKDKVSLTCMITDFFPEDITVEWQWNGQPAENYKNTQPIMDTDGSYFVYSKLNVQKSNWEAGNTFTCSVLHEGLHNHHTEKSLSHSPGK VL: DVVMTQTPLSLPVSLGDQASISCRSSQSLVHSNGNTYLHWYLQKPGQSPKLLIYKVSNRFSGVPDRFSGSGSGTDFTLKISRVEAEDLGVYFCSQSTHVPPFTFGSGTKLEIKRADAAPTVSIFPPSSEQLTSGGASVVCFLNNFYPKDINVKWKIDGSERQNGVLNSWTDQDSKDSTYSMSSTLTLTKDEYERHNSYTCEATHKTSTSPIVKSFNRNEC |  | ≥ 93% |  |  |  | ≥ 93% | ≥ 90% | ≥ 90%
LakePharma variant4 (antibody, also called LP variant4; LPvariant04) VH: EVQLQQSGPELVKPGASMKLSCKASGYSFTGYTMNWVKQSHGKNLEWIGLINPYNGGTSYNQKFKGKATLTVDKSSSTAYMELLSLTSEDSAVYYCARSHYRYDYWYFDVWGAGTTVTVSSAKTTPPSVYPLAPGSAAQTNSMVTLGCLVKGYFPEPVTVTWNSGSLSSGVHTFPAVLQSDLYTLSSSVTVPSSTWPSETVTCNVAHPASSTKVDKKIVPRDCGCKPCICTVPEVSSVFIFPPKPKDVLTITLTPKVTCVVVDISKDDPEVQFSWFVDDVEVHTAQTQPREEQFNSTFRSVSELPIMHQDWLNGKEFKCRVNSAAFPAPIEKTISKTKGRPKAPQVYTIPPPKEQMAKDKVSLTCMITDFFPEDITVEWQWNGQPAENYKNTQPIMDTDGSYFVYSKLNVQKSNWEAGNTFTCSVLHEGLHNHHTEKSLSHSPGK VL: DVVMTQTPLSLPVSLGDQASISCRSSQSLVHSNGNTYLHWYLQKPGQSPKLLIYKVSNRFSGVPDRFSGSGSGTDFTLKISRVEAEDLGVYFCSQSTHVPPFTFGSGTKLEIKRADAAPTVSIFPPSSEQLTSGGASVVCFLNNFYPKDINVKWKIDGSERQNGVLNSWTDQDSKDSTYSMSSTLTLTKDEYERHNSYTCEATHKTSTSPIVKSFNRNEC |  | ≥ 93% |  |  |  | ≥ 93% | ≥ 90% | ≥ 90%
A56-01A02 (Ab01) (antibody, V domains shown) VH: QMQLVQSGAEVKKPGSSVKVSCKASGGTFSSYAISWVRQAPGQGLEWMGGIIPIFGTANYAQKFQGRVTMTRDTSTSTVYMELSSLKSEDTAVYYCARFVFGSGTYLDSWGQGTLVTVSS VL: not shown | ≥ 80% | ≥ 90% | ≥ 60% | ≥ 80% | ≥ 60% | ≥ 90% |  | 
A56-02C07 (Ab19) (antibody, V domains shown) VH: QVQLVESGAEVRRPGSSVKVSCKTSGVTFSGYVLSWVRQAPGHGLEWMGRIIPLIDVENYAREFQGRMKITADKSTNTVYMELNNLRSEDTAVYYCAKSVVRGLDYYYYGFDVWGQGTTVTVSS VL: SYELTQPPSLSVAPGKTARITCGGNNIGSKSVHWYQQKPGQAPRLVTYYDGNRPSGIPERFSGSNSGNTATLIISRVEAGDEADYYCQVWDSSSDQGVFGTGTKVTVL | ≥ 80% | ≥ 90% | ≥ 60% | ≥ 80% | ≥ 60% | ≥ 90% |  | 
A56-02B01 (Ab14) (antibody, V domains shown) VH: QVQLVQSGGGVVQPGRSLRLSCAASGFTFSNYGMHWVRQAPGKGLEWMAFIWFDGSNKFYADSVKGRFTVSRDNSKNTLFLQMNSLRAEDTAVYYCAKAAHLWGAFDIWGQGTMVTVSS VL: DIQMTQSPDTLSLSPGERATLSCRASQSVSSYLAWYQQKPGQAPRLLIYGASNRATGIPARFSGSGSGTDFALTIGRLEPEDFAVYYCQQYATSPLSFGGGTKVEIK | ≥ 80% | ≥ 90% | ≥ 60% | ≥ 80% | ≥ 60% | ≥ 90% |  | 
A56-01F12 (Ab08) (antibody, V domains shown) VH: QVQLVESGGEVKKPGSSVKVSCKASGGSFSTYAISWVRQAPGQGLEWMGRIIPISDIRNYAQKFQGRVTLTADRATSTAYMELSSLRSEDTAVYYCAKGGRLLSTHFDYWGQGTLVTVSS VL: QLVLTQPPSVSAAPGQKVTISCSGSSSNIGNNYVSWYQQLPGTAPKLLIYDDDKRPSGIPDRFSGSKSGTSATLGITGLQTGDEADYYCGTWHSGLSAGVVFGGGTKLTVL | ≥ 80% | ≥ 90% | ≥ 60% | ≥ 80% | ≥ 60% | ≥ 90% |  | 
A56-02C06 (Ab18) (antibody, V domains shown) VH: QVQLVESGGGLVQPGKSLRLSCAASGFTFSTYGMTWVRQAPGKGLEWVSGISGGGSSTNYADSVKGRFIISRDNSNNTLYLQMNSLRAEDTAVYYCARWGVMLSFDYWGQGTPVTVSS VL: DIQMTQSPSTLPASVGDRVTITCRASYSVSPWLAWYQQKPGKAPKLLIYKASTLESGVPSRFSGSGSGTEFTLTISSLQPDDFATYYCQQFNSYMMYTFGQGTKLEIK | ≥ 80% |  | ≥ 60% | ≥ 80% | ≥ 60% |  |  | 
A56-02A02 (Ab13) (antibody, V domains shown) VH: QMQLVESGAEVKKTGSSVKVSCKASGDTLTYRFLHWVRQAPGQAPEWMGWITPFNDNTNYAQKFQDRVTITRDRSMSTAYMELSSLRSEDTAVYYCATGGGNNYYGMEVWGQGTPITVSS VL: SYELTQPLSLSVSPGQTASITCSGDKLGDKFTSWYQQQPGQSPVLVIYQDAKRPSGIPERFSGSNSGSTATLTISGTQSMDEADYYCQAWDSSSVVFGGGTKLTVL | ≥ 80% | ≥ 90% | ≥ 60% | ≥ 80% | ≥ 60% | ≥ 90% |  | 
